System: T1, PhoB (Bacteroides fragilis YCH46), ORF:3d02aa67
T1 sequence: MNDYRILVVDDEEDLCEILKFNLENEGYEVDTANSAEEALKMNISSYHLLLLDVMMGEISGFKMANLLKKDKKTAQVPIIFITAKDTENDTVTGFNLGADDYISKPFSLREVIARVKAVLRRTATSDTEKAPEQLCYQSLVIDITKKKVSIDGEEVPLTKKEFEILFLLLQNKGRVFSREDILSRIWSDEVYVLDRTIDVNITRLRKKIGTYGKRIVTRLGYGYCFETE
Experiment: EMSA
Conditions: EMSA: 50 mM Tris-HCl pH 7.5, 50 mM KCl, 10 mM MgCl2, 0.5 mM EDTA, 30 min at 25 C; 5% polyacrylamide gel. PS B and PS E promoter fragments (S55/S56, S57/S58 …)

GGAATGGCTGGTAATCAAGTGCCTTGACTGCATCTGCATTGGCTTCTCCGTATTGAAATGATGGAGCAGCATAAGTGACTTGGCATTGAACTCCTGTAACATAATCCGGATTTTCTCCATTAAGATTATATTTAAGAGGTACGTTGGACGATGTGAAGATTAACGACGTCAACGAAGTAGTACCTGTTCCACCGAAAATATTGCCGGTAGCATAAGGTACTTCTATATCGTCGTTATCCGATGCCACTTTGATAAACTTAATATCGATGCGTGATACAATGCGTTCCAGA (double strand) [BF3397 internal fragment]
binding: no binding

Reference: publication PMC3547664
